Data on 72 molecules can be found in US20250011363A1, “OPTIMIZED SHORTENED PEPTIDE THAT BINDS TO ACETYLCHOLINE RECEPTOR, AND USE THEREOF” (SKINMED CO., LTD., priority 2021, published 2025).

The target of this assay is acetylcholine receptor. Put plainly: SPR, AchR immobilised on chip, peptide 10 uM. A general note: Surface plasmon resonance follows binding to a sensor surface in real time, without labels.

B1: 6mer-1-238 (peptide)
peptide: KKGQQK
For the molecule B1, the Binding affinity (RU) turned out to be 154 RU.

B2: 6mer-1-243 (peptide)
peptide: KKWYLR
Molecule B2 returned a Binding affinity (RU) of 136 RU.

B3: 6mer-1-228 (peptide)
peptide: KRVIYK
The molecule B3 had a Binding affinity (RU) of 139 RU.

B4: 5mer-837 (peptide)
peptide: RPMDR
With B4, the Binding affinity (RU) is 28 RU.

B5: 5mer-843 (peptide)
peptide: KTTPK
The molecule B5 registered a Binding affinity (RU) of 17 RU.

B6: 5mer-1133 (peptide)
peptide: KCSMK
Take B6: the Binding affinity (RU) was 23 RU.

B7: 6mer-1-232 (peptide)
peptide: RRRICK
B7 registered a Binding affinity (RU) of 146 RU.

B8: 5mer-846 (peptide)
peptide: RPDWR
On to B8, for which the Binding affinity (RU) was 32 RU.

B9: 5mer-841 (peptide)
peptide: KNEMR
Consider B9, for which the Binding affinity (RU) turned out to be 22 RU.

B10: 5mer-1142 (peptide)
peptide: KTENK
On to B10, for which the Binding affinity (RU) worked out at 24 RU.

B11: 6mer-1-205 (peptide)
peptide: KRWRLR
In the case of B11, the Binding affinity (RU) is 133 RU.

B12: 5mer-847 (peptide)
peptide: KAPEK
As to B12, the Binding affinity (RU) was found to be 28 RU.

B13: 5mer-1143 (peptide)
peptide: RATGK
The molecule B13 registered a Binding affinity (RU) of 19 RU.

B14: 5mer-840 (peptide)
peptide: KDTAR
With B14, the Binding affinity (RU) is 11 RU.

B15: 6mer-1-226 (peptide)
peptide: RRWITR
For the molecule B15, the Binding affinity (RU) was found to be 128 RU.

B16: 6mer-1-204 (peptide)
peptide: KKRQRR
With B16, the Binding affinity (RU) turned out to be 154 RU.

B17: 6mer-1-230 (peptide)
peptide: RKGYCK
Molecule B17 registered a Binding affinity (RU) of 128 RU.

B18: 6mer-1-212 (peptide)
peptide: RRRICR
Consider B18, for which the Binding affinity (RU) was determined as 148 RU.

B19: 5mer-836 (peptide)
peptide: REWNR
On to B19, for which the Binding affinity (RU) worked out at 15 RU.

B20: 5mer-838 (peptide)
peptide: RHSMK
As for B20, the Binding affinity (RU) came out at 13 RU.

B21: 5mer-1139 (peptide)
peptide: KHCWK
B21 came in with a Binding affinity (RU) of 28 RU.

B22: 6mer-1-222 (peptide)
peptide: RRRVRR
In turn, B22 registered a Binding affinity (RU) of 145 RU.

B23: 6mer-1-1225 (peptide)
peptide: RKLICK
For the molecule B23, the Binding affinity (RU) was found to be 142 RU.

B24: 6mer-1-236 (peptide)
peptide: RKLISR
As for B24, the Binding affinity (RU) came to 151 RU.

B25: 6mer-1-231 (peptide)
peptide: KRQRTK
For the molecule B25, the Binding affinity (RU) came to 136 RU.

B26: 5mer-1134 (peptide)
peptide: RTCKR
Molecule B26 showed a Binding affinity (RU) of 26 RU.

B27: 5mer-839 (peptide)
peptide: RHHDK
Take B27: the Binding affinity (RU) turned out to be 26 RU.

B28: 6mer-1-224 (peptide)
peptide: KRGFLR
Take B28: the Binding affinity (RU) came to 142 RU.

B29: 6mer-1-207 (peptide)
peptide: KKSQQR
The molecule B29 displayed a Binding affinity (RU) of 151 RU.

B30: 5mer-1138 (peptide)
peptide: RENHK
On to B30, for which the Binding affinity (RU) stood at 24 RU.

B31: 6mer-1-213 (peptide)
peptide: KRRVRK
Turning to B31, the Binding affinity (RU) was 127 RU.

B32: 6mer-1-239 (peptide)
peptide: RKVLCR
B32 registered a Binding affinity (RU) of 136 RU.

B33: 6mer-1-203 (peptide)
peptide: RRQITR
On to B33, for which the Binding affinity (RU) came to 142 RU.

B34: 6mer-1-214 (peptide)
peptide: RRSYCK
Molecule B34 yielded a Binding affinity (RU) of 139 RU.

B35: 5mer-844 (peptide)
peptide: KTDPR
Molecule B35 returned a Binding affinity (RU) of 32 RU.

B36: 5mer-1140 (peptide)
peptide: RNEFK
Take B36: the Binding affinity (RU) amounted to 28 RU.

B37: 5mer-845 (peptide)
peptide: RYEDR
Molecule B37 registered a Binding affinity (RU) of 15 RU.

B38: 6mer-1-217 (peptide)
peptide: KRVLQR
For B38, the Binding affinity (RU) came out at 135 RU.

B39: 5mer-1147 (peptide)
peptide: RDTGK
B39 yielded a Binding affinity (RU) of 16 RU.

B40: 6mer-1-209 (peptide)
peptide: RKGYTR
For B40, the Binding affinity (RU) was 121 RU.

B41: 5mer-834 (peptide)
peptide: RMNIK
Turning to B41, the Binding affinity (RU) was 15 RU.

B42: 5mer-1135 (peptide)
peptide: RHTAR
The molecule B42 gave a Binding affinity (RU) of 17 RU.

B43: 5mer-1144 (peptide)
peptide: KAKNR
Take B43: the Binding affinity (RU) worked out at 33 RU.

B44: 6mer-1-206 (peptide)
peptide: RRLQTR
In turn, B44 displayed a Binding affinity (RU) of 121 RU.

B45: 6mer-1-240 (peptide)
peptide: RRSRRR
Molecule B45 yielded a Binding affinity (RU) of 148 RU.

B46: 6mer-1-233 (peptide)
peptide: KKWQSR
With B46, the Binding affinity (RU) was determined as 128 RU.

B47: 6mer-1-216 (peptide)
peptide: RKSIQR
Take B47: the Binding affinity (RU) was 148 RU.

B48: 6mer-1-219 (peptide)
peptide: RRLFCR
Regarding B48, the Binding affinity (RU) worked out at 121 RU.

B49: 5mer-1146 (peptide)
peptide: KPHGR
The molecule B49 displayed a Binding affinity (RU) of 23 RU.

B50: 6mer-1-241 (peptide)
peptide: RRLYYK
Take B50: the Binding affinity (RU) is 148 RU.

B51: 5mer-842 (peptide)
peptide: RHNVK
B51 showed a Binding affinity (RU) of 20 RU.

B52: 6mer-1-202 (peptide)
peptide: RRQLTK
Molecule B52 came in with a Binding affinity (RU) of 154 RU.

B53: 6mer-1-235 (peptide)
peptide: KKRYCR
Turning to B53, the Binding affinity (RU) stood at 148 RU.

B54: 6mer-1-208 (peptide)
peptide: KRSIQR
B54 came in with a Binding affinity (RU) of 122 RU.

B55: 5mer-1137 (peptide)
peptide: KEEEK
As for B55, the Binding affinity (RU) came out at 22 RU.

B56: 6mer-1-220 (peptide)
peptide: KRQRQK
B56: the Binding affinity (RU) is 148 RU.

B57: 6mer-1-229 (peptide)
peptide: RRRLLR
In turn, B57 came in with a Binding affinity (RU) of 153 RU.

B58: 6mer-1-211 (peptide)
peptide: KKQLLR
Turning to B58, the Binding affinity (RU) was determined as 123 RU.

B59: 5mer-1141 (peptide)
peptide: REEVR
B59 came in with a Binding affinity (RU) of 26 RU.

B60: 6mer-1-221 (peptide)
peptide: KKWFQR
On to B60, for which the Binding affinity (RU) came to 148 RU.

B61: 5mer-1148 (peptide)
peptide: RDWFR
Molecule B61 displayed a Binding affinity (RU) of 24 RU.

B62: 5mer-835 (peptide)
peptide: RFMMR
Consider B62, for which the Binding affinity (RU) came out at 14 RU.

B63: 6mer-1-227 (peptide)
peptide: KRLVQK
In the case of B63, the Binding affinity (RU) came out at 139 RU.

B64: 6mer-1-223 (peptide)
peptide: KKRRRK
Regarding B64, the Binding affinity (RU) was determined as 133 RU.

B65: 5mer-848 (peptide)
peptide: RYMVK
Take B65: the Binding affinity (RU) was found to be 12 RU.

B66: 5mer-1136 (peptide)
peptide: KNSAR
Molecule B66 came in with a Binding affinity (RU) of 25 RU.

B67: 6mer-1-242 (peptide)
peptide: KRQYLK
On to B67, for which the Binding affinity (RU) was found to be 148 RU.

B68: 6mer-1-215 (peptide)
peptide: RKRYSR
In turn, B68 gave a Binding affinity (RU) of 136 RU.

B69: 6mer-1-234 (peptide)
peptide: RRGISR
On to B69, for which the Binding affinity (RU) worked out at 142 RU.

B70: 6mer-1-218 (peptide)
peptide: KKQVTR
Turning to B70, the Binding affinity (RU) came to 126 RU.

B71: 5mer-1145 (peptide)
peptide: RMPAK
As to B71, the Binding affinity (RU) was 25 RU.

B72: 6mer-1-237 (peptide)
peptide: RKSRYK
The molecule B72 registered a Binding affinity (RU) of 137 RU.
